The values below come from publication PMC7946437, “Cardiolipin targets a dynamin-related protein to the nuclear membrane” (eLife, 2021).

One data set concerns the target T1, Drp6 (His-drp6) (Tetrahymena thermophila, UniProt Q38KF5, I553A).
T1 construct: full length aa 1-710, N-terminal His tag (pRSETB), expressed in E. coli C41(DE3), Ni-NTA; higher-order oligomer (at least six monomers)
Put plainly: Malachite Green phosphate release (BIOMOL Green). Type of data set: biochemical. The following applies: 1 mM GTP, 1 µM protein, 25 mM HEPES pH 7.5, 15 mM KCl, 2 mM MgCl2, 37°C.

Substrate in data set [1]: Nc1nc2c(ncn2[C@@H]2O[C@H](COP(=O)(O)OP(=O)(O)OP(=O)(O)O)[C@@H](O)[C@H]2O)c(=O)[nH]1
Description: Malachite Green phosphate release (BIOMOL Green). The conditions noted are these: 25 mM HEPES pH 7.5, 15 mM KCl, 2 mM MgCl2, 37°C, 10 min, GTP 50-2000 µM. Type of data set: biochemical, Tetrahymena thermophila.

Data set [2] deals with the molecule itself. Put plainly: SEC; Superdex 200 GL 10/300; 500 µl of protein (0.5 mg/ml) in buffer A, 0.5 ml/min, absorbance at 280 nm; self-assembly into higher order oligomers.

Substitutions are numbered along the chain they refer to. Names may count otherwise.

T1 sequence (Q38KF5 entry or part of it I553A): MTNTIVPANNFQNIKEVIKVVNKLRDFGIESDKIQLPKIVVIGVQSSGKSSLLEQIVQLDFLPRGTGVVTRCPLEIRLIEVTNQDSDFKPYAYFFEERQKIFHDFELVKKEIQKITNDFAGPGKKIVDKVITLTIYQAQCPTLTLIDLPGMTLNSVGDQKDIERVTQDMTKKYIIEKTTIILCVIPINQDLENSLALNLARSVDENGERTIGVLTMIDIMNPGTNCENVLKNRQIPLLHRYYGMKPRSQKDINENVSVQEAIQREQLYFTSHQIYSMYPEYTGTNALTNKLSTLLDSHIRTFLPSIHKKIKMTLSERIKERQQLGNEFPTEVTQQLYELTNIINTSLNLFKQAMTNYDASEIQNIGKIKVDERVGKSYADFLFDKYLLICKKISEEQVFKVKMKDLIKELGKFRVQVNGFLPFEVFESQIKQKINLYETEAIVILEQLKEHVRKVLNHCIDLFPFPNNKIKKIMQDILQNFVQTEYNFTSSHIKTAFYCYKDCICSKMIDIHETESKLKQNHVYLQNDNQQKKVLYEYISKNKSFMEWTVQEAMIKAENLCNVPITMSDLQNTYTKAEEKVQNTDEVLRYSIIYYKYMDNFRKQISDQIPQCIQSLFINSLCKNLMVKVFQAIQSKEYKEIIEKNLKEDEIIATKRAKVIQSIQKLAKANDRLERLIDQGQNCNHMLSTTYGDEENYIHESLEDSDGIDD

Take `Nc1nc2c(ncn2[C@@H]2O[C@H](COP(=O)(O)OP(=O)(O)OP(=O)(O)O)[C@@H](O)[C@H]2O)c(=O)[nH]1` [GTP]: at Drp6 (His-drp6), the “Malachite Green phosphate release (BIOMOL Green)” value was “does not affect its activity as assessed by the rate of GTP hydrolysis”.

B1: Tetrahymena dynamin-related protein 6 (Drp6), N-terminal histidine-tagged (natural protein, Tetrahymena thermophila, UniProt Q38KF5 1-710, looked up)
chain: MTNTIVPANNFQNIKEVIKVVNKLRDFGIESDKIQLPKIVVIGVQSSGKSSLLEQIVQLDFLPRGTGVVTRCPLEIRLIEVTNQDSDFKPYAYFFEERQKIFHDFELVKKEIQKITNDFAGPGKKIVDKVITLTIYQAQCPTLTLIDLPGMTLNSVGDQKDIERVTQDMTKKYIIEKTTIILCVIPINQDLENSLALNLARSVDENGERTIGVLTMIDIMNPGTNCENVLKNRQIPLLHRYYGMKPRSQKDINENVSVQEAIQREQLYFTSHQIYSMYPEYTGTNALTNKLSTLLDSHIRTFLPSIHKKIKMTLSERIKERQQLGNEFPTEVTQQLYELTNIINTSLNLFKQAMTNYDASEIQNIGKIKVDERVGKSYADFLFDKYLLICKKISEEQVFKVKMKDLIKELGKFRVQVNGFLPFEVFESQIKQKINLYETEAIVILEQLKEHVRKVLNHCIDLFPFPNNKIKKIMQDILQNFVQTEYNFTSSHIKTAFYCYKDCICSKMIDIHETESKLKQNHVYLQNDNQQKKVLYEYISKNKSFMEWTVQEIMIKAENLCNVPITMSDLQNTYTKAEEKVQNTDEVLRYSIIYYKYMDNFRKQISDQIPQCIQSLFINSLCKNLMVKVFQAIQSKEYKEIIEKNLKEDEIIATKRAKVIQSIQKLAKANDRLERLIDQGQNCNHMLSTTYGDEENYIHESLEDSDGIDD
notes: Dynamin-related protein 6 (Drp6) of Tetrahymena thermophila; the text calls the His-tagged protein the full-length protein; pRSETB vector; also called His-drp6; WT; source: E. coli C41(DE3), purified (Ni-NTA agarose); not shown: histidine tag, N-terminal, kept
For orientation: Km means the substrate concentration at which the rate is half of its maximum. Usually stoichiometry N stands for the number of molecules, sites or subunits per partner or assembly. With B1, the Km in data set [1] is reported as 180 µM. In addition, the “stoichiometry N” value in data set [2] was not below 6 monomers.

B2: Drp6-I553A, N-terminal histidine-tagged (natural protein, Tetrahymena thermophila, UniProt Q38KF5 1-710, looked up)
chain: B1 chain with I553A
notes: Dynamin-related protein 6 (Drp6) of Tetrahymena thermophila with I553A, made by site-directed mutagenesis of the His-drp6 construct; pRSETB vector; same limits as His-drp6 are likely (point mutant of that construct); also called His-drp6-I553A; I553A-Drp6; source: E. coli C41(DE3), purified (Ni-NTA agarose); not shown: histidine tag, N-terminal, kept
As to B2, the binding result in data set [2] is given as “binds”.

B3: Drp6-I553M, N-terminal histidine-tagged (natural protein, Tetrahymena thermophila, UniProt Q38KF5 1-710, looked up)
chain: B1 chain with I553M
notes: Dynamin-related protein 6 (Drp6) of Tetrahymena thermophila with I553M, made by site-directed mutagenesis of the His-drp6 construct; pRSETB vector; same limits as His-drp6 are likely (point mutant of that construct); also called His-drp6-I553M; source: E. coli C41(DE3), purified (Ni-NTA agarose); not shown: histidine tag, N-terminal, kept
B3: in data set [1], the Km was determined as 384 µM. In addition, the binding result in data set [2] is “binds”.
